Where “and” joins values, the source holds several entries; their conditions need not be identical. Equal entries are not always repeated.
Legend:
[1] = system: toxic myocarditis caused by Adriamycin in rat; experiment: Survival rate, Adriamycin caused toxic myocarditis rat model; assay type: in vivo, SD rat
Protocol: rhNRG-1β was injected into the tail vein within 24 hours after the first injection of Adriamycin, the injection of rhNRG-1 β was carried out once daily for 10 days. Dosage was adjusted according to the body weight, volume of the drug administered was 0.2 ml/100 g.
Based on the <<Guidance Principle of New Drug Preclinical Experiment>>, 3.3 mg/kg of Adriamycin was injected into the tail vein, once per week for consecutive 4 injections, establishing Adriamycin caused toxic myocarditis rat model.
rhNRG-1 β was injected into the tail vein within 24 hours after the first injection of Adriamycin. During the experiment, animal survival was dynamically monitored, heart function indexes (maximal rate of pressure increase within left ventricle, […], maximal rate of pressure decrease within left ventricle, −dp/dt, systolic end pressure of left ventricle LVPmax, diastolic end pressure of left ventricle LVPmin) were monitored at the 5th week. Section was made from the heart tissue and pathological changes examined.
Situation of survival was recorded weekly and the survival rate of the various experimental groups was calculated. Survival rate (%)=survival animal number/number of experimental animals×100.

[2] = system: heart failure in rat caused by ligation of coronary artery; experiment: Echocardiography heart function, heart failure by ligation of coronary artery; assay type: in vivo, SD rat
Protocol: Route of drug administration: in both testing drug group and model group the drug was injected into the tail vein once per day for consecutive 5 days. Echocardiography was performed at the 6th day prior to drug administration, then continuously injected for 5 days. Volume of each drug injection was 0.4 ml/100 g body weight.
After anesthesia with intra-abdominal injection of 100 mg/kg ketamine, the rat was fixed on rat plate in supine position, disinfection of the neck region with bromo-geramine was carried out after depilating. Midline incision was made, trachea was found after separating the anterior cervical muscle, 18 G arterial indwelling trochar was inserted into the trachea at the level of 3-5 tracheal cartilage, took out the stylet, push the plastic cannula 1-2 cm further into the trachea, fixed it for later connection with ventilator for small animal (tidal volume was about […], frequency was 80/min). […] Then closed the chest wall, block the opening of the ventilator to inflate the lungs, forcefully pressed the chest to drive out the air, then sutured the chest muscle and skin. Monitoring the respiration, after spontaneous respiration recovered, withdrawn the ventilator, took the animal back to its cage for breeding. In the pseudo-operation group, only the pericardium was tore open, but without the coronary artery ligation.
Echocardiograph was performed for the operated rat at about 6 days postoperatively, those animals with about 50% reduction of EF value were randomly divided into groups, the EF value of each group was all about 50%, then drug administration began.
Those animals with EF value of about 50% were randomly divided into model group (negative group) and 3-dosage level testing drug groups with 12-13 animals in each group. Route of drug administration in testing drug group and model group was injection into the tail vein, once every day for consecutive 5 days. After echocardiography at the 6th day, another 5 days of consecutive drug administration was carried out. Drug volume of each injection was 0.4 ml/100 g body weight.
Echocardiography was performed under anesthesia with ketamine after the legation and prior to drug administration and at the 6th day, 11th day of drug administration, the major index included: • EF: heart ejection fraction, reflecting ejection function of ventricle; • FS: ventricular short axis shortening rate, reflecting contraction function of ventricle; • LVDd: diastolic maximal inner diameter of left ventricle (cm); • LVDs: systolic minimal inner diameter of left ventricle (cm). 6.3.3.2 Determination of the Content of Plasma Renin-angiotensin-aldosterone

[3] = 5 μg/kg group, prior to drug administration, (1)
[4] = 5 μg/kg iv 10 qd, 10 days after the drug administration, (II)
[5] = 5 μg/kg iv qd × 5, 5 days after the drug administration, (1)
[6] = 5 μg/kg iv qd × 5, 5 days after the drug administration, (II)
[7] = 5 μg/kg iv qd × 10, 10 days after the drug administration, (1)
[8] = 5 μg/kg, Table 4, titled 10 days after the drug administration, (II)
[9] = 10 μg/kg group, prior to drug administration, (1)
[10] = 10 μg/kg iv 10 qd, 10 days after the drug administration, (II)
[11] = 10 μg/kg iv qd × 5, 5 days after the drug administration, (1)
[12] = 10 μg/kg iv qd × 5, 5 days after the drug administration, (II)
[13] = 10 μg/kg iv qd × 10, 10 days after the drug administration, (1)
[14] = 10 μg/kg, Table 4, titled 10 days after the drug administration, (II)
[15] = 20 μg/kg group, prior to drug administration, (1)
[16] = 20 μg/kg iv 10 qd, 10 days after the drug administration, (II)
[17] = 20 μg/kg iv qd × 5, 5 days after the drug administration, (1)
[18] = 20 μg/kg iv qd × 5, 5 days after the drug administration, (II)
[19] = 20 μg/kg iv qd × 10, 10 days after the drug administration, (1)
[20] = 20 μg/kg, Table 4, titled 10 days after the drug administration, (II)

B1: rhNRG-1 β: Recombinant human neuregulin fragment of 61 amino acid (SEQ ID NO:4), 3 disulfide bonds, expressed in E. coli (protein, listed as Homo sapiens)
chain: SHLVKCAEKEKTFCVNGGECFMVKDLSNPSRYLCKCPNEFTGDRCQNYVMASFYKAEELYQ
modifications: disulfide (positions not given here)
Work on B1 yielded a survival rate ([1]; Adriamycin 3.3 mg/kg weekly × 4, 10 μg/kg iv qd 10 days) of 60%, a survival rate ([1]; Adriamycin 3.3 mg/kg weekly × 4, 20 μg/kg iv qd 10 days) of 90% and a survival rate ([1]; Adriamycin 3.3 mg/kg weekly × 4, 40 μg/kg iv qd 10 days) of 85%. The EF [2, 3] was 49.3%, the FS [2, 3] was 22.0% and the LVDd [2, 3] was 0.761 cm. The LVDs [2, 3] was 0.596 cm, the EF [2, 4] was 57.90% and the FS [2, 4] was 29.26%. The LVDd [2, 4] was 0.70 cm, the LVDs [2, 4] was 0.53 cm and the EF [2, 5] was 62.9±8.4% and 62.90%. For the same molecule, the FS [2, 5] was 30.3±6.1% and 30.32%, the LVDd [2, 5] was 0.73 cm and the LVDs [2, 5] was 0.54 cm. For the same molecule, the EF [2, 6] was 56.76%, the FS [2, 6] was 28.35% and the LVDd [2, 6] was 0.74 cm. For the same molecule, the LVDs [2, 6] was 0.58 cm, the EF [2, 7] was 59.2±12.4% and 59.2% and the FS [2, 7] was 28.4±8.6% and 28.4%. The LVDd [2, 7] was 0.72 cm, the LVDs [2, 7] was 0.55 cm and the EF value ([2]; 5 μg/kg, 5-day after drug administration and 35-day after drug withdrawal) was 69.9 ± 28.6%. The EF value ([2]; 5 μg/kg, 5-day after drug administration, long-term monitoring) was 75.8 ± 15.3%, the EF [2, 8] was 50.81% and the FS [2, 8] was 22.83%. For the same molecule, the LVDd [2, 8] was 0.66 cm, the LVDs [2, 8] was 0.51 cm and the EF [2, 9] was 49.5%. For the same molecule, the FS [2, 9] was 22.1%, the LVDd [2, 9] was 0.709 cm and the LVDs [2, 9] was 0.555 cm. For the same molecule, the EF [2, 10] was 66.54%, the FS [2, 10] was 34.28% and the LVDd [2, 10] was 0.68 cm. The LVDs [2, 10] was 0.49 cm, the EF [2, 11] was 64.4±12.9% and 64.3±12.8% and 64.35% and the FS [2, 11] was 32.0±9.5% and 32.01%. The LVDd [2, 11] was 0.71 cm, the LVDs [2, 11] was 0.51 cm and the EF [2, 12] was 56.51%. For the same molecule, the FS [2, 12] was 26.53%, the LVDd [2, 12] was 0.72 cm and the LVDs [2, 12] was 0.54 cm. The EF [2, 13] was 61.4±15.0% and 61.4%, the FS [2, 13] was 30.3±10.4% and 30.3% and the LVDd [2, 13] was 0.7 cm. For the same molecule, the LVDs [2, 13] was 0.51 cm, the EF value ([2]; 10 μg/kg, 5-day after drug administration and 35-day after drug withdrawal) was 63.8 ± 23.8% and the EF value ([2]; 10 μg/kg, 5-day after drug administration, long-term monitoring) was 77.3 ± 11.6%. The EF [2, 14] was 51.67%, the FS [2, 14] was 23.27% and the LVDd [2, 14] was 0.64 cm. It also gave an LVDs [2, 14] of 0.49 cm, an EF value ([2]; 10 μg/kg, after ligation prior to drug administration, long-term monitoring) of 52.2 ± 12.8% and an EF [2, 15] of 49.3%. It also gave an FS [2, 15] of 21.7%, an LVDd [2, 15] of 0.730 cm and an LVDs [2, 15] of 0.575 cm. The EF [2, 16] was 70.22%, the FS [2, 16] was 36.49% and the LVDd [2, 16] was 0.65 cm. The LVDs [2, 16] was 0.42 cm, the EF [2, 17] was 71.1±12.0% and 71.07% and the FS [2, 17] was 36.9±9.7% and 36.88%. For the same molecule, the LVDd [2, 17] was 0.70 cm, the LVDs [2, 17] was 0.46 cm and the EF [2, 18] was 65.47%. The FS [2, 18] was 34.23%, the LVDd [2, 18] was 0.68 cm and the LVDs [2, 18] was 0.46 cm. For the same molecule, the EF [2, 19] was 75.7±10.8% and 75.7%, the FS [2, 19] was 41.3±11.0% and 41.3% and the LVDd [2, 19] was 0.6 cm. The LVDs [2, 19] was 0.5 cm, the EF value ([2]; 20 μg/kg, 5-day after drug administration, long-term monitoring) was 79.2 ± 4.7 % and the EF [2, 20] was 52.29%. It also gave an FS [2, 20] of 23.89%, an LVDd [2, 20] of 0.74 cm and an LVDs [2, 20] of 0.56 cm. The EF value ([2]; 20 μg/kg, after ligation prior to drug administration, long-term monitoring) was 52.4 ± 13.8%.
